From PMC4833410, “Structure-Guided Mutations in the Terminal Organelle Protein MG491 Cause Major Motility and Morphologic Alterations on Mycoplasma genitalium” (PLoS Pathogens, 2016) come the findings set out here.

In series [1] the target is MG491-Nt (residues 1 to 308) (Mycoplasma genitalium G37) (UniProt Q9ZB78). Nature of the series: native MS; nano-ElectroSpray Ionization Mass Spectrometry, 10 μM MG491-Nt in 100 mM NH4OAc, acquisition range 500-8000 m/z.
Series [2] shares this target. Kind of series: crystal structure; vapour diffusion at 20°C, 0.2 M lithium sulphate, 25% PEG 3350, pH 6.5-8.5; space group P2(1)2(1)2, four subunits in the asymmetric unit; SAD on seleno methionine MG491-Nt, averaging between crystals.
Series [3] shares this target. Nature of the series: SEC; Superdex 200 16/60 gel filtration column, 0.05 M Tris-HCl (pH 8.0), 0.15 M NaCl; apparent molecular weight. A general note: Size exclusion chromatography separates by hydrodynamic size, large species first.
Series [4] deals with the molecule itself. Kind of series: crystal structure; vapour diffusion at 20°C, 0.2 M lithium sulphate, 25% PEG 3350, pH 6.5-8.5; space group P2(1)2(1)2, four subunits in the asymmetric unit; SAD on seleno methionine MG491-Nt, averaging between crystals.

For the molecule “MG491-Nt (residues 1 to 308) (from UniProt Q9ZB78 1-308) (domain or fragment)”, the stoichiometry N in series [1], in series [2] and in series [3] was 4 throughout.

B1: full length MG491 protein (residues 1 to 346) (natural protein)
chain: MVNNEYQQLNTLVESDDEADLVIANLVKQLNELKQILVSLDNQEASATAVTDKKEEEYNQNQSSFHNFSKETLQKQAKRGFLLLERCSLVGLQQLELEYVNLLGRSFDSYQQKTELLNNLKELVDEHFSDTEKIINTLEKIFDVIGGSEYTPVLNSFFNKLLSDPDPIQREIGLRQFIITLRQRFKKLSQKIDSSLKQIETEAKIATEQVQNSEVMFGPPDIANDHELNLNWPDSETDAILSSMENELEAALLAKHQEEPPLIVTPPSLIKPTVSQPEVEVVTPTNNTNFQPQVDLKPTDLKKQQKKKPLNFITRPVFKSNLPPKLSKDDIVHYAHQLLEKNTHNE
notes: MG491, terminal organelle protein of Mycoplasma genitalium G37, residues 1-346; the TGA codon of Trp232 was changed to TGG for expression in E. coli (no change of the protein); Cloned in pET21d between NdeI and XhoI; In the crystals the C-terminal region was lost by proteolysis; also called MG_491 gene product; wild type MG491; source: E. coli BL21 (DE3), purified (HisTrap HP, Superdex 200 16/60)
With B1, the stoichiometry N (usually the number of molecules, sites or subunits per partner or assembly) in series [4] came to 4.

B2: seleno methionine-labeled MG491-Nt (domain or fragment)
chain: MVNNEYQQLNTLVESDDEADLVIANLVKQLNELKQMLVSLDNQEASATAVTDKKEEEYNQNQSSFHNFSKETLQKQAKRGFLLLERCSLVGLQQLELEYVNLLGRSFDSYQQKTELLNNLKELVDEHFSDTEKIINTLEKIFDVIGGSEYTPVLNSFFNKLLSDPDPMQREIGLRQFIITLRQRFKKLSQKIDSSLKQIETEAKMATEQVQNSEVMFGPPDIANDHELNLNWPDSETDAILSSMENELEAALLAKHQEEPPLIVTPPSLIKPTVSQPEVEVVTPTNNTNFQPQVDLKPTDLKKQQKKK
modifications: seleno methionines at 36, 168 and 205
notes: MG491 of Mycoplasma genitalium G37, residues 1-308, with Ile36, Ile168 and Ile205 replaced by (seleno)methionine; residues 65-204, 67-203, 66-203 and 62-205 of subunits A-D are seen in the structure; also called Seleno methionine MG491-Nt; MG491-Nt variant with Ile36, Ile168, Ile205 replaced by seleno methionines; source: E. coli BL21 (DE3) in SelenoMet medium, purified (HisTrap HP, Superdex 200 …)
As for B2, the “stoichiometry N” value in series [4] is 4.
